In the supplement of paper PMC10567573:

B1: ZNF263 (parent)
chain: PEASHLRFRRFRFQEAAGPREALS

Variants of: B1
Experiment: protein stability index of a GFP-peptide fusion (GPS, HEK-293T) (PSI 1-6); higher = more stable
Settings: c terminus: a fixed tail appended
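Also: lentivirally expressed fusions sorted by FACS into six bins by GFP to DsRed ratio, PSI derived from sequencing read proportions per bin multiplied by bin number.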

Variant	protein stability index
PEACHLRFRRFRFQEAAGPREALS [S4C]	2.87
PEAYHLRFRRFRFQEAAGPREALS [S4Y]	2.83
PEALHLRFRRFRFQEAAGPREALS [S4L]	1.83
PEASHLRFRRFRFQEAAGPRLALS [E21L]	2.41
PEASHLRFRRFRFQEAAGPRDALS [E21D]	2.54
PEASHLRFRRFRFQEAAGPRVALS [E21V]	1.85
PEASHLRFRRFRFQEAAGPRCALS [E21C]	2.14
PEASHLRFRRFRFQEAAGPRGALS [E21G]	2.4
PEASHLRFRRFRFQEAAGPRIALS [E21I]	2.04
PEASHLRFRRFRFQEAAGPRRALS [E21R]	2.87
PEASWLRFRRFRFQEAAGPREALS [H5W]	2.44
PEASMLRFRRFRFQEAAGPREALS [H5M]	3.39
PEASPLRFRRFRFQEAAGPREALS [H5P]	1.49
PEASTLRFRRFRFQEAAGPREALS [H5T]	2.89
PEASHLRFRRFRFQEAAGPREALH [S24H]	2.68
PEASHLRFRRFRFQEAAGPREALA [S24A]	2.28
PEASHLRFRRFRFQEAAGPREALF [S24F]	2.07
PEASHLRFRRFRFQEAAGPREALN [S24N]	3.28
PEASHLNFRRFRFQEAAGPREALS [R7N]	3.08
PEASHLMFRRFRFQEAAGPREALS [R7M]	2.84
PEASHLPFRRFRFQEAAGPREALS [R7P]	2.35
PEASHLSFRRFRFQEAAGPREALS [R7S]	2.68
PEASHLHFRRFRFQEAAGPREALS [R7H]	2.93
PEASHLQFRRFRFQEAAGPREALS [R7Q]	2.75

Variant	protein stability index
PEASHLRFRRFRSQEAAGPREALS [F13S]	4.01
PEASHLRFRRFRAQEAAGPREALS [F13A]	3.97
PEASHLRFRRFRVQEAAGPREALS [F13V]	3.61
PEASHLRFRRFRWQEAAGPREALS [F13W]	3.58
PEASHLRFRRFRFQEAAGPREASS [L23S]	3.28
PEASHLRFRRFRFQEAAGPREARS [L23R]	3.11
PEASHLRFRRFRFQEAAGPREAQS [L23Q]	2.97
PEASHLRFRRFRFQEAAGPREAWS [L23W]	1.91
PEASHLRFRRFRFQEAAGPREAGS [L23G]	3.04
PEASHLRFRRFRFQEAAGPREAFS [L23F]	2.58
PEASHLRFRRFRFQEHAGPREALS [A16H]	3
PEASHLRFRRFRFQESAGPREALS [A16S]	3.54
PEASHLRFRRFRFQEMAGPREALS [A16M]	2.15
PEASHLRFRRFRFQEDAGPREALS [A16D]	2.99
PIASHLRFRRFRFQEAAGPREALS [E2I]	1.72
PYASHLRFRRFRFQEAAGPREALS [E2Y]	1.82
PSASHLRFRRFRFQEAAGPREALS [E2S]	2.52
PQASHLRFRRFRFQEAAGPREALS [E2Q]	2.11
WEASHLRFRRFRFQEAAGPREALS [P1W]	2.08
HEASHLRFRRFRFQEAAGPREALS [P1H]	2.16
MEASHLRFRRFRFQEAAGPREALS [P1M]	2.73
KEASHLRFRRFRFQEAAGPREALS [P1K]	2.38
CEASHLRFRRFRFQEAAGPREALS [P1C]	1.96
PEASHLRFRRIRFQEAAGPREALS [F11I]	3.1

Variant	protein stability index
PEASHLRFRRQRFQEAAGPREALS [F11Q]	4.13
PEASHLRFRRTRFQEAAGPREALS [F11T]	4.16
PEASHLRFRRLRFQEAAGPREALS [F11L]	2.66
PEASHLRFRRARFQEAAGPREALS [F11A]	3.25
PEHSHLRFRRFRFQEAAGPREALS [A3H]	2.84
PERSHLRFRRFRFQEAAGPREALS [A3R]	2.71
PEYSHLRFRRFRFQEAAGPREALS [A3Y]	2.38
PEQSHLRFRRFRFQEAAGPREALS [A3Q]	2.55
PEASHLRFRDFRFQEAAGPREALS [R10D]	3.29
PEASHLRFREFRFQEAAGPREALS [R10E]	2.68
PEASHLRFRHFRFQEAAGPREALS [R10H]	2.27
PEASHLRFRRFRFQEAAGLREALS [P19L]	1.95
PEASHLRFRRFRFQEAAGKREALS [P19K]	2.73
PEASHLRFRRFRFQEAAGQREALS [P19Q]	3.18
PEASHLRFRRFRFQEAAGHREALS [P19H]	2.73
PEASHLRFRRFRFQEAAGCREALS [P19C]	2.21
PEASHLRFRRFRFQHAAGPREALS [E15H]	2.04
PEASHLRFRRFRFQGAAGPREALS [E15G]	2.24
PEASHLRFRRFRFQWAAGPREALS [E15W]	2.15
PEASHLRFRRFRFQAAAGPREALS [E15A]	2.73
PEASHLRFRRFRFSEAAGPREALS [Q14S]	2.87
PEASHLRFRRFRFIEAAGPREALS [Q14I]	1.78
PEASHLRFRRFRFQEAAGPVEALS [R20V]	2.65
PEASHLRFRRFRFQEAAGPWEALS [R20W]	1.49

Variant	protein stability index
PEASHLRFRRFRFQEAAGPQEALS [R20Q]	2.7
PEASHLRFRRFRFQEAAGPPEALS [R20P]	2.24
PEASHLRFRRFRFQEAAGPHEALS [R20H]	2.4
PEASHLRFRRFRFQEAAGPFEALS [R20F]	1.62
PEASHLRFRRFRFQEAAGPEEALS [R20E]	3.35
PEASHLRFHRFRFQEAAGPREALS [R9H]	1.98
PEASHLRFFRFRFQEAAGPREALS [R9F]	2.29
PEASHLRFIRFRFQEAAGPREALS [R9I]	1.69
PEASHLRFRRFRFQEAAGPRESLS [A22S]	2.77
PEASHLRFRRFRFQEAAGPREMLS [A22M]	2.37
PEASHLRFRRFRFQEAAGPRETLS [A22T]	2.74
PEASHLRFRRFRFQEAAGPREHLS [A22H]	2.57
PEASHLRFRRFRFQEAAGPREDLS [A22D]	3.38
PEASHLRFRRFRFQEAAGPREILS [A22I]	2.28
PEASHLRFRRFRFQEAAGPREKLS [A22K]	2.77
PEASHLRFRRFRFQEAAGPREFLS [A22F]	2.6
PEASHCRFRRFRFQEAAGPREALS [L6C]	2.6
PEASHIRFRRFRFQEAAGPREALS [L6I]	2.42
PEASHERFRRFRFQEAAGPREALS [L6E]	3.61
PEASHRRFRRFRFQEAAGPREALS [L6R]	3.06
PEASHARFRRFRFQEAAGPREALS [L6A]	3.3
PEASHMRFRRFRFQEAAGPREALS [L6M]	2.54
